The nature of series [1]: Insulin aspart pharmacokinetics during closed-loop insulin delivery, two-compartment modelling of plasma insulin. Details: species or system human. The following applies: in vivo. The procedure:
Children were admitted in the afternoon on two study visits, 2–6 weeks apart, at the Wellcome Trust Clinical Research Facility, Addenbrooke’s Hospital, Cambridge, to undergo closed-loop insulin delivery from 17:00 hours until 8:00 hours the following morning. On both occasions, the children consumed identical evening meals at 17:00 hours [44 ± 12 g carbohydrate] and optional bedtime snacks [6 ± 7 g carbohydrate]. Standard pump bolus calculators were used to calculate meal insulin boluses and basal rates on the insulin pump (Animas 2020, Johnson & Johnson, PA, USA) were adjusted every 15 min according to the output of a model predictive control algorithm informed by real-time continuous glucose monitoring values (Dexcom G4, Dexcom, CA, USA). Standard strength (100 U/ml) insulin aspart (Novo Nordisk, Bagsvaerd, Denmark) was infused at one visit and diluted aspart (0.9% saline [154 mmol/l NaCl] at 1:5 ratio, 20 U/ml) was administered at the other; the order of the two interventions was random. […]
Venous blood samples were taken at −30, 0, 30, 60, 90, 120, 180, 240, 300, 360, 420, 480, 540, 600, 660, 720, 780, 840 and 900 min relative to 17:00 hours for measuring the plasma insulin concentration. […] Plasma insulin was measured using an immunochemiluminometric assay (Invitron, Monmouth, UK; intra-assay CV 4.7%, interassay CV 7.2–8.1%; 100% cross reactivity with insulin aspart). Fasting C-peptide levels were measured at plasma glucose values above 6 mmol/l by ELISA (Mercodia, Uppsala, Sweden).
Aspart pharmacokinetics was assessed using a two-compartment model measuring the time-to-peak of plasma insulin concentration (t max), metabolic clearance rate of insulin (MCR I), and background plasma insulin concentration (ins c). […]
Differences between pharmacokinetic parameters were assessed by paired t test (for normally distributed variables) or the Wilcoxon signed-rank test (for non-normally distributed variables). […] The Spearman’s rank correlation evaluated correlations between pharmacokinetic and demographic indices. […]

On the set-up of series [2]: method as in PMID 23278690. The following applies: pig, in vivo, sc; cited from earlier work.
The conditions of series [3]: cited from earlier work; for MCR I / ins c: published literature, closed-loop insulin delivery. The source says: Similar estimates of MCR I and ins c were also found in the current study and published literature (1.94 vs 1.68 × 10^−2 vs 1.90 × 10^−2 1/kg/min for MCR I, 29 vs 28 vs 61 pmol/l for ins c). In the present study, MCR I values in the two visits were highly correlated (r = 0.918, p < 0.001), as were the ins c values ...

Read-outs that look alike come from different tables or passages of the source.

Consider B28Asp human insulin [insulin aspart], for which the “mean value of t max in the present study” value in series [1] (human) was 60.4 min. In series [1], this substance showed an MCR I in the current study of 19.4 mL/min/kg. In addition, the “ins c in the current study” value in series [1] is 29 pmol/L. In addition, in series [2], the “effect of concentration on insulin aspart pharmacokinetics” value is “no significant difference between U200, U100 and U20”. The t max in series [3] (adults with type 1 diabetes, during closed-loop insulin delivery) is on record as 51 min; in series [3] (older children with type 1 diabetes, during closed-loop insulin delivery), 66 min; in series [3] (type 1 diabetes, following insulin bolus injection), 49 min. The entries for the “MCR I” value in series [3] (ref 7) and in series [3] (ref 8) were 0.0168 kg⁻¹ min⁻¹ and 0.019 kg⁻¹ min⁻¹, respectively. The ins c in series [3] (ref 7) was 28 pmol/L; in series [3] (ref 8), 61 pmol/L.

Values taken from paper PMC4351431, “Pharmacokinetics of diluted (U20) insulin aspart compared with standard (U100) in children aged 3–6 years with type 1 diabetes during closed-loop insulin delivery: a randomised clinical trial” (Diabetologia, 2014).
